In this series the test system is CC1(C)S[C@@H]2[C@H](NC(=O)Cc3ccccc3)C(=O)N2[C@H]1C(=O)O. Put plainly: purified protein.

The Km is the concentration of substrate that gives half-maximal velocity. Usually kcat/Km stands for the turnover number divided by the Michaelis constant.

As to (Escherichia coli), the Km is given as 27 ± 4 µM and the specificity constant (kcat/Km) was determined as 9e+06 ± 2e+06 M⁻¹ s⁻¹.
For the substance (Mycobacterium tuberculosis H37Rv), the Km was found to be 72.9 ± 0.8 µM and the kcat/Km was found to be 640000 ± 10000 M⁻¹ s⁻¹.

(Values after article PMC8617505.)
